Experimental data as given in US20260234242A1 (HAINAN SIMCERE ZAIMING PHARMACEUTICAL, published 2026).
Positions count from the first letter of the chain named. Like-named read-outs stand apart in the source and are kept apart here.

T1: human CDH6 on tumor cells (OVCAR3 cells, PA-1 cells) (human, UniProt P55285 54-790)
T1 sequence: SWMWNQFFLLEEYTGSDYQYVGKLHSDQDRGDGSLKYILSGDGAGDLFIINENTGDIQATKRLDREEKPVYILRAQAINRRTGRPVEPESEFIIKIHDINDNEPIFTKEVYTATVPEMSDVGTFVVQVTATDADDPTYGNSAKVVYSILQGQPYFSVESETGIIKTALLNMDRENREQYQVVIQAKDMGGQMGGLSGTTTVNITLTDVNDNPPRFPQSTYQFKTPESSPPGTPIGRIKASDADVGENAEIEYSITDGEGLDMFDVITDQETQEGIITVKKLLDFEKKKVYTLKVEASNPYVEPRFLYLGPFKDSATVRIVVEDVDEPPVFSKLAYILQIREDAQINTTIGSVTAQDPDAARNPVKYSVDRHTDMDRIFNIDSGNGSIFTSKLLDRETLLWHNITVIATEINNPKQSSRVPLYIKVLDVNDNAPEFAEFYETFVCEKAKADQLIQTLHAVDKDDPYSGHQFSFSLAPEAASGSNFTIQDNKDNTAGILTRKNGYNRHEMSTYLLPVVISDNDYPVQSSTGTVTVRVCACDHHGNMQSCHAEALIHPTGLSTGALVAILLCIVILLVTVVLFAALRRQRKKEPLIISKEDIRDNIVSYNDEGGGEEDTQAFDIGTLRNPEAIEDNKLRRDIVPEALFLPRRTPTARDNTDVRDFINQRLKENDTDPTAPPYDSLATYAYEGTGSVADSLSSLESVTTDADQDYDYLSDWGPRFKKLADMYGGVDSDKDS

T2: his-tagged human CDH6 extracellular region protein (hCDH6 ECD-his) (human, UniProt P55285 19-615)
T2 construct: also called Human CDH6-his; hCDH6-his; not shown: his tag
T2 sequence: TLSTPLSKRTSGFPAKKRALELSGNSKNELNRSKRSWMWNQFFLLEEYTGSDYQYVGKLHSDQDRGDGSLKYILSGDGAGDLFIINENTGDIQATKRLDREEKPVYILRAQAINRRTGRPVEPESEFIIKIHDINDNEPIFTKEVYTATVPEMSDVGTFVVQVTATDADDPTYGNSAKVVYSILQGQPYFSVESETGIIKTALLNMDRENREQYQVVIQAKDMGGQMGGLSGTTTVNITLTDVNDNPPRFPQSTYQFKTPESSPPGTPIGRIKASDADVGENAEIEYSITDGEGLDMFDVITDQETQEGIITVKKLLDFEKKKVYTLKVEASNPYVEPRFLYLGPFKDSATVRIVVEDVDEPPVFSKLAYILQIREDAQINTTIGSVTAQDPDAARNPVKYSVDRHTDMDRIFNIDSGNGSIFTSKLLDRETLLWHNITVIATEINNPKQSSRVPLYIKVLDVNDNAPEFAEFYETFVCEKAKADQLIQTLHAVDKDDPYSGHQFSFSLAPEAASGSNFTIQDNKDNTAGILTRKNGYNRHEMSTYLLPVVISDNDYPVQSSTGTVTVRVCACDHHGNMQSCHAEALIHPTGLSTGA

B1: hCDH6-1-H2L1 (antibody, V domains shown)
VH: EVQLVQSGAEVKKPGSSVKVSCKASGYTFTNYWMHWVRQAPGQGLEWMGDIDPSHSETHYTQKFKDRVTITVDKSTSTAYMELSSLRSEDTAVYYCARGDLGRFDYWGQGTTVTVSS
VL: DIVMTQSPDSLAVSLGERATINCRASESVSIHGTHLMHWYQQKPGQPPKLLIYAASNLESGVPDRFSGSGSETDFTLTISSLQAEDVAVYYCQQSFEDPWTFGGGTKVEIK
notes: Humanized
B2: hCDH6-1-H2L2 (antibody, V domains shown)
VH: B1 VH
VL: B1 VL with P44S
notes: Humanized
B3: hCDH6-1-H3L1 (antibody, V domains shown)
VH: B1 VH with I70L
VL: B1 VL
notes: Humanized
B4: hCDH6-1-H3L2 (antibody, V domains shown)
VH: B1 VH with I70L
VL: B1 VL with P44S
notes: Humanized
B5: hCDH6-1-H4L1 (antibody, V domains shown)
VH: B1 VH with A40R
VL: B1 VL
notes: Humanized
B6: hCDH6-6-H2L3 (antibody, V domains shown)
VH: EVQLVQSGAEVKKPGASVKVSCKASGYTFTDYYMAWVRQAPGQGLEWMGYIFPNSGGTDYSQKFKGRVTLTVDKSTSTVYMELSSLRSEDTAVYYCARELGADYGDYYAMDHWGQGTTVTVSS
VL: DIQMTQSPSSLSASVGDRVTITCRASENIDSYLAWYQQKPGKSPQLLVYSATLLADGVPSRFSGSGSGTDYTLTISSLQPEDFATYYCQHYYRTPPTFGQGTKLEIK
notes: Humanized
B7: hCDH6-6-H1L5 (antibody, V domains shown)
VH: B6 VH with L70M
VL: DIVMTQSPLSLPVTPGEPASISCRASENIDSYLAWYLQKPGKSPQLLVYSATLLADGVPDRFSGSGSGTDFTLKISRVEAEDVGVYYCQHYYRTPPTFGQGTKLEIK
notes: Humanized
B8: hCDH6-6-H2L5 (antibody, V domains shown)
VH: B6 VH
VL: B7 VL
notes: Humanized
B9: hCDH6-6-H3L5 (antibody, V domains shown)
VH: B6 VH with G42R, L70M
VL: B7 VL
notes: Humanized
B10: hCDH6-6-H3L3 (antibody, V domains shown)
VH: B6 VH with G42R, L70M
VL: B6 VL
notes: Humanized
B11: hCDH6-6-H3L2 (antibody, V domains shown)
VH: B6 VH with G42R, L70M
VL: B6 VL with Q45K
notes: Humanized
B12: hCDH6-6-H3L1 (antibody, V domains shown)
VH: B6 VH with G42R, L70M
VL: B6 VL with Q45K, V48L
notes: Humanized
B13: hCDH6-6-H2L4 (antibody, V domains shown)
VH: B6 VH
VL: B6 VL with Q45K, T85R
notes: Humanized
B14: hCDH6-6-H3L4 (antibody, V domains shown)
VH: B6 VH with G42R, L70M
VL: B6 VL with Q45K, T85R
notes: Humanized

Experiments:
[1] = biological target: T1, human CDH6 on tumor cells (OVCAR3 …); test: FACS, OVCAR3 cells
Procedure: (§1) OVCAR3 cells with high expression of CDH6 and PA-1 cells with moderate expression of CDH6 were used to detect the binding activity of the antibodies to the cells. […] The cells were washed once with PBS, counted, resuspended to 2×10⁶ cells/mL in an FACS buffer (PBS+2% FBS), and then added to a 96-well plate at 50 μL/well. The chimeric antibodies were diluted with FACS buffer (PBS+2% FBS) and added to the 96-well plate at 50 μL/well, and the plate was incubated at 4° C. for 1 h. […] The dilution was added to the 96-well plate at 50 μL/well, and the plate was incubated at 4° C. for 1 h. After the plates were centrifuged and washed 2 times with PBS, the cells were resuspended in an FACS buffer. The mean fluorescence intensity (MFI) was measured using FACS Canton II (BD). Analysis was performed by the GraphPad Prism software, data were fitted, and EC50 values were calculated. The chimeric antibodies tested had strong binding to both OVCAR3 cells and PA-1 cells.
(§2) According to the above sequences, heavy chain (HC) and light chain (LC) plasmids were constructed (the nucleic acid sequences encoding the VH and VL of the antibodies were recombined into an expression vector carrying a signal peptide (SEQ ID NO: 132, […]) and a heavy chain constant region/light chain constant region sequence to obtain recombinant plasmids expressing VH-CH1-Fc/VL-CL). According to the expression and purification methods in Example 2, the hCDH6-1 humanized antibodies were obtained, and the binding activity of the humanized antibodies was detected by ELISA and FACS (see 2.2 and 2.3 for the method).

[2] = biological target: T2, his-tagged human CDH6 extracellular …; test: ELISA, coated antigen
Procedure: (§3) Human CDH6 protein (hCDH6 ECD-his, conventionally synthesized), monkey CDH6 protein (cynoCDH6 ECD-his, conventionally synthesized; the cynoCDH6 ECD sequence was derived from Uniprot #A0A2K5TW62 (19-615)), and murine CDH6 protein (mCDH6 ECD-his, conventionally synthesized; the mCDH6 ECD sequence was derived from Uniprot #P97326 (19-615)) were diluted with PBS to a final concentration of 1 μg/mL, and added to a 96-well ELISA plate at 100 μL/well. The plate was incubated at 4° C. overnight. The next day, the plate was washed 3 times with a plate washing solution (PBS+0.01% (v/v) Tween 20), and a blocking buffer (PBS+0.01% (v/v) Tween 20+2% (w/w) BSA) was added for blocking at room temperature for 2 h. The blocking buffer was discarded, and the plate was washed 3 times. The chimeric antibodies were diluted with 1% BSA+PBS (purchased from Cytiva, Cat. No. SH30264.01) and added to the 96-well plate at 50 μL/well. After incubation at 37° C. for 2 h, the plate was washed 3 times with a plate washing solution. […] The plate was incubated at 37° C. for 1 h and then washed 5 times with a plate washing solution. A TMB substrate (purchased from Seracare, Cat. No. 5120-0077) was added at 50 μL/well and incubated at room temperature for 10 min, then a stop solution (1.0 N HCl) was added at 50 μL/well. OD450 nm values were read using a microplate reader (Biotek). Analysis was performed by the GraphPad Prism software, data were fitted, and EC50 values were calculated. The chimeric antibodies tested all had strong binding to the human CDH6 protein, the monkey CDH6 protein, and the murine CDH6 protein.
(§4) According to the above sequences, heavy chain (HC) and light chain (LC) plasmids were constructed (the nucleic acid sequences encoding the VH and VL of the antibodies were recombined into an expression vector carrying a signal peptide (SEQ ID NO: 132, […]) and a heavy chain constant region/light chain constant region sequence to obtain recombinant plasmids expressing VH-CH1-Fc/VL-CL).

[3] = biological target: T1, human CDH6 on tumor cells (OVCAR3 …); test: FACS, OVCAR3 cells; remark: listed apart in the source
Procedure: as §1
as §2, with “VH—CH1-Fc/VL-CL).” for “VH-CH1-Fc/VL-CL).”, “hCDH6-6” for “hCDH6-1”

[4] = biological target: T2, his-tagged human CDH6 extracellular …; test: ELISA, coated antigen; remark: listed apart in the source
Procedure: as §3
as §4, with “VH—CH1-Fc/VL-CL).” for “VH-CH1-Fc/VL-CL).”

Binder	EC50 [1]	Max MFI [1]	EC50 [2]	Max OD450 [2]	EC50 [3]	Max MFI [3]	EC50 [4]	Max OD450 [4]
B1	0.228 nM	14500 MFI	0.046 nM	2.65 OD450				
B2	0.147 nM	14300 MFI	0.026 nM	2.63 OD450				
B3	0.154 nM	14600 MFI	0.026 nM	2.6 OD450				
B4	0.167 nM	14300 MFI	0.026 nM	2.58 OD450				
B5	0.152 nM	14000 MFI	0.031 nM	2.62 OD450				
B6					0.57 nM	14100 MFI	0.025 nM	2.09 OD450
B7					0.61 nM	14200 MFI	0.031 nM	2.06 OD450
B8					0.64 nM	14600 MFI	0.026 nM	2.1 OD450
B9					0.69 nM	14200 MFI	0.043 nM	1.97 OD450
B10					0.74 nM	14300 MFI	0.031 nM	2 OD450
B11					0.85 nM	14600 MFI	0.03 nM	2.09 OD450
B12					0.87 nM	13700 MFI	0.05 nM	2.02 OD450
B13					0.62 nM	14300 MFI	0.029 nM	2.14 OD450
B14					0.7 nM	14500 MFI	0.041 nM	2.05 OD450
